B1: Progesterone-induced-blocking factor 1 (Homo sapiens), Q8WXW3 (parent)
chain: MSRKISKESKKVNISSSLESEDISLETTVPTDDISSSEEREGKVRITRQLIERKELLHNIQLLKIELSQKTMMIDNLKVDYLTKIEELEEKLNDALHQKQLLTLRLDNQLAFQQKDASKYQELMKQEMETILLRQKQLEETNLQLREKAGDVRRNLRDFELTEEQYIKLKAFPEDQLSIPEYVSVRFYELVNPLRKEICELQVKKNILAEELSTNKNQLKQLTETYEEDRKNYSEVQIRCQRLALELADTKQLIQQGDYRQENYDKVKSERDALEQEVIELRRKHEILEASHMIQTKERSELSKEVVTLEQTVTLLQKDKEYLNRQNMELSVRCAHEEDRLERLQAQLEESKKAREEMYEKYVASRDHYKTEYENKLHDELEQIRLKTNQEIDQLRNASREMYERENRNLREARDNAVAEKERAVMAEKDALEKHDQLLDRYRELQLSTESKVTEFLHQSKLKSFESERVQLLQEETARNLTQCQLECEKYQKKLEVLTKEFYSLQASSEKRITELQAQNSEHQARLDIYEKLEKELDEIIMQTAEIENEDEAERVLFSYGYGANVPTTAKRRLKQSVHLARRVLQLEKQNSLILKDLEHRKDQVTQLSQELDRANSLLNQTQQPYRYLIESVRQRDSKIDSLTESIAQLEKDVSNLNKEKSALLQTKNQMALDLEQLLNHREELAAMKQILVKMHSKHSENSLLLTKTEPKHVTENQKSKTLNVPKEHEDNIFTPKPTLFTKKEAPEWSKKQKMKT
partner: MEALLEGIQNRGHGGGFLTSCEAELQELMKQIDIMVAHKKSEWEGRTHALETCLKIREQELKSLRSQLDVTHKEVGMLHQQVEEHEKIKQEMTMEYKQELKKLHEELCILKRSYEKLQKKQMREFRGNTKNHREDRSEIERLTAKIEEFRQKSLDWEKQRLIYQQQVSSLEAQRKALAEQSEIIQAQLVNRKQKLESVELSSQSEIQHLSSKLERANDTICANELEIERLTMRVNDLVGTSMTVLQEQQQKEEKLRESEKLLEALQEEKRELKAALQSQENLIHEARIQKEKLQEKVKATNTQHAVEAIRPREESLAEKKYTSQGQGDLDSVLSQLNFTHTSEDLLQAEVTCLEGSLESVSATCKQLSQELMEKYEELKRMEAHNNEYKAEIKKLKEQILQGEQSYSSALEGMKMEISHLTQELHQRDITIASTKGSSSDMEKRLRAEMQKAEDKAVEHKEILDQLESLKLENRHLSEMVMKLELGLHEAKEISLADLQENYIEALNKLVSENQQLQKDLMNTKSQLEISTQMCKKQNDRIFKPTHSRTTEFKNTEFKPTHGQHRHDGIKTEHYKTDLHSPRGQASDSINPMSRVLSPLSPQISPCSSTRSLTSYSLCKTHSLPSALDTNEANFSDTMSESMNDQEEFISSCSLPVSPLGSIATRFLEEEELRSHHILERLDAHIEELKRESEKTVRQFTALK

Variants of: B1
Conditions: with cep63_human CEP63, Q96MT8

| Variant | effect of a mutation on the interaction |
| --- | --- |
| E89Q | disrupting interaction strength |
